Article PMC3156789 (Biochemistry, 2011)

Tests used:
CHK = format: biochemical; conditions: in vitro
[1] = aqueous solution; size exclusion chromatography and sedimentation velocity; ref [24]; cited from earlier work
c-Src = conditions: read-out: dissociation constant (KD) of the CSK/c-Src complex; surface plasmon resonance; ref [9] Levinson et al.; cited from earlier work

B1: 14-3-3β: recombinant 14-3-3β (protein, UniProt P31946 1-246, looked up)
14-3-3 protein beta/alpha: MTMDKSELVQKAKLAEQAERYDDMAAAMKAVTEQGHELSNEERNLLSVAYKNVVGARRSSWRVISSIEQKTERNEKKQQMGKEYREKIEAELQDICNDVLELLDKYLIPNATQPESKVFYLKMKGDYFRYLSEVASGDNKQTTVSNSQQAYQEAFEISKKEMQPTHPIRLGLALNFSVFYYEILNSPEKACSLAKTAFDEAIAELDTLNEESYKDSTLIMQLLRDNLTLWTSENQGDEGDAGEGEN
- level of CHK phosphorylation (CHK; purified recombinant proteins): negligible level
- direct phosphorylation by CHK (CHK; purified recombinant proteins (SFig. 4A)): CHK could directly phosphorylate all three protein substrates in vitro

B2: CHK-His6: GSGS linker and a polyhistidine tag attached to the C-terminus of the rat CHK sequence (protein)
chain: MPTQRWAPGTQCMTKCENSRPKPGELAFRKGDMVTILEACEDKSWYRAKHHSSGQEGLLAAAALRQREALSTDPKLSLMPWFHGKISGQEAIQQLQPPEDGLFLVRESARHPGDYVLCVSFGRDVIHYRVLHRDGHLTIDEAVCFCNLMDMVEHYTRDKGAICTKLVKPKRKQGAKSAEEELAKAGWLLDLQHLTLGAQIGEGEFGAVLQGEYLGQKVAVKNIKCDVTAQAFLDETAVMTKLQHRNLVRLLGVILHHGLYIVMEHVSKGNLVNFLRTRGRALVSTSQLLQFALHVAEGMEYLESKKLVHRDLAARNILVSEDLVAKVSDFGLAKAELRKGLDSSRLPVKWTAPEALKNGRFSSKSDVWSFGVLLWEVFSYGRAPYPKMSLKEVSEAVEKGYRMEPPDSCPGPVHTLMGSCWEAEPSRRPPFRKIVEKLGRELRSVGVAAPAGGQEAEGSAPTRSQDP
modifications: left off: … (GSGS linker and polyhistidine tag), C-terminal, kept
- oligomeric state [1]: monomeric in aqueous solution

B3: CSK: C-terminal Src kinase (protein, UniProt P41240 2-450, looked up)
Tyrosine-protein kinase CSK: SAIQAAWPSGTECIAKYNFHGTAEQDLPFCKGDVLTIVAVTKDPNWYKAKNKVGREGIIPANYVQKREGVKAGTKLSLMPWFHGKITREQAERLLYPPETGLFLVRESTNYPGDYTLCVSCDGKVEHYRIMYHASKLSIDEEVYFENLMQLVEHYTSDADGLCTRLIKPKVMEGTVAAQDEFYRSGWALNMKELKLLQTIGKGEFGDVMLGDYRGNKVAVKCIKNDATAQAFLAEASVMTQLRHSNLVQLLGVIVEEKGGLYIVTEYMAKGSLVDYLRSRGRSVLGGDCLLKFSLDVCEAMEYLEGNNFVHRDLAARNVLVSEDNVAKVSDFGLTKEASSTQDTGKLPVKWTAPEALREKKFSTKSDVWSFGILLWEIYSFGRVPYPRIPLKDVVPRVEKGYKMDAPDGCPPAVYEVMKNCWHLDAAMRPSFLQLREQLEHIKTHELHL
- Kd (c-Src): 4 to 64 µM
